Experimental data from the supplement of paper PMC9732359.
± gives the uncertainty stated by the source.

Test: protein stability index of a GFP-peptide fusion (yeast GPS) (PSI 1-4); higher = more stable; sorted into four equal gates, so the index is relative within each strain
Outline: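 Each library plasmid carries Cherry plus GFP with a tiled 17-residue yeast protein peptide fused downstream, and the pooled library was carried in yeast. Mid-log cultures in leucine-free medium were sorted into four equal gates by GFP/Cherry ratio. Reads from Illumina sequencing of PCR-amplified plasmids from each gate were assigned to strains by barcodes. Per peptide, the protein stability index was computed as the summed products of gate read frequency and gate number.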

| Sequence | protein stability index (doa10∆) | protein stability index (pdr5∆) | protein stability index (san1∆) | protein stability index (ubr1∆) |
| --- | --- | --- | --- | --- |
| LNLDSEQTVEYMVSRAI [RPN3] | 3.32 ± 0.23 | 3.22 ± 0.3 | 2.93 ± 0.25 | 2.83 ± 0.11 |
| LNLQFKAKVDDLVLGKP [YLR335W/NUP2] | 2.85 ± 0.11 | 3.39 ± 0.18 | 3.34 ± 0.067 | 3.3 ± 0.078 |
| LNSYHIKNGRIYFTVPN [RGR1] | 2.57 ± 0.054 | 2.21 ± 0.035 | 2.19 ± 0.056 | 2.33 ± 0.037 |
| LNVVLDDAMEINGEDPA [SMX2] | 3.35 ± 0.067 | 3.31 ± 0.07 | 3.46 ± 0.039 | 3.2 ± 0.067 |
| LNWFRTTNMNVNNCIWA [RGR1] | 2.22 ± 0.057 | 1.34 ± 0.045 | 1.15 ± 0.12 | 1.28 ± 0.036 |
| LNYGNICEPKETLSIFT [YJL039C/NUP192] | 2.02 ± 0.061 | 1.75 ± 0.056 | 2.02 ± 0.12 | 1.73 ± 0.054 |
| LPAYSGEIGDFFSSDWR [POP1] | 3.04 ± 0.11 | 3.32 ± 0.089 | 3.24 ± 0.068 | 3.16 ± 0.096 |
| LPFMQNAGPNSNIPNLL [YDL088C/ASM4] | 2.46 ± 0.037 | 2.18 ± 0.04 | 2.58 ± 0.039 | 2.52 ± 0.029 |
| LPFYAILRSIPDKLLGV [COB] | 2.59 ± 0.041 | 2.07 ± 0.039 | 2.1 ± 0.055 | 1.99 ± 0.046 |
| LPGTEKGRKTNKYANND [CSL4] | 3.22 ± 0.12 | 3.5 ± 0.13 | 3.2 ± 0.072 | 3.41 ± 0.19 |
| LPHSPLWELALAFIPNI [YML031W/NDC1] | 1.36 ± 0.084 | 1.25 ± 0.044 | 1.24 ± 0.092 | 1.08 ± 0.05 |
| LPKYKEKKAASAKQTAP [MED7] | 2.71 ± 0.095 | 2.97 ± 0.078 | 2.74 ± 0.056 | 2.61 ± 0.066 |
| LPLFYDLLNAASIESAD [IRR1] | 2.08 ± 0.047 | 2.17 ± 0.056 | 2.27 ± 0.047 | 2.78 ± 0.048 |
| LPLPPSVEWMKVSPSMC [SIN4] | 1.75 ± 0.055 | 1.71 ± 0.05 | 1.69 ± 0.09 | 1.55 ± 0.063 |
| LPLWHLLNRIPRMYHIG [POP1] | 3.06 ± 0.17 | 2.97 ± 0.15 | 2.06 ± 0.21 | 2.63 ± 0.15 |
| LPLYEKNTLLERLKQLT [SWP82] | 2.71 ± 0.16 | 2.87 ± 0.088 | 2.73 ± 0.1 | 2.87 ± 0.22 |
| LPNQIPGEYITTIKAIF [YMR129W/POM152] | 2.37 ± 0.055 | 2.51 ± 0.055 | 2.78 ± 0.053 | 3.11 ± 0.041 |
| LPRCSKEEFRLMISPKD [RRI2] | 1.77 ± 0.056 | 1.88 ± 0.063 | 1.58 ± 0.16 | 1.67 ± 0.044 |
| LPSHIISTSDVTRIINS [RPL4A] | 2.43 ± 0.033 | 2.66 ± 0.038 | 2.41 ± 0.035 | 2.55 ± 0.029 |
| LPTRGTLESLENLVVAD [COR1] | 2.83 ± 0.059 | 3.04 ± 0.053 | 2.84 ± 0.057 | 2.89 ± 0.042 |
| LPYERHMISQEGIKETQ [SWI1] | 1.22 ± 0.066 | 1.23 ± 0.073 | 1.3 ± 0.14 | 1.27 ± 0.065 |
| LQEAIDFAQKEINGDDD [PRE10] | 2.96 ± 0.087 | 3 ± 0.079 | 3.23 ± 0.067 | 2.96 ± 0.076 |
| LQEKEQLYFKKKVNYKV [ISW2] | 2.96 ± 0.15 | 3.23 ± 0.15 | 3.26 ± 0.23 | 3.48 ± 0.12 |
| LQELIVNGPNVHPGANY [RPO31] | 2.83 ± 0.071 | 2.99 ± 0.092 | 2.99 ± 0.072 | 2.45 ± 0.047 |

| Sequence | protein stability index (doa10∆) | protein stability index (pdr5∆) | protein stability index (san1∆) | protein stability index (ubr1∆) |
| --- | --- | --- | --- | --- |
| LQHLRSRCHLVTKDTKK [SRP68] | 2.93 ± 0.11 | 2.88 ± 0.11 | 2.93 ± 0.12 | 3.12 ± 0.056 |
| LQKQMGIGSLTDLMSIV [RPC34] | 1.91 ± 0.11 | 2.04 ± 0.13 | 2.68 ± 0.12 | 1.86 ± 0.14 |
| LQLAPGAHLGRFVIWTE [RPL4A] | 3.62 ± 0.21 | 2.98 ± 0.22 | 3.18 ± 0.099 | 3.27 ± 0.08 |
| LQLASLQQKQRDLILKK [SMC3] | 2.49 ± 0.14 | 2.46 ± 0.16 | 3.1 ± 0.097 | 2.68 ± 0.13 |
| LQNNSDSESDSDSETNH [SKP1] | 2.76 ± 0.065 | 3.19 ± 0.074 | 2.84 ± 0.055 | 2.82 ± 0.082 |
| LQPVIPGGAASKSVPTP [SNF5] | 2.93 ± 0.13 | 3.28 ± 0.062 | 3.12 ± 0.049 | 3.13 ± 0.053 |
| LQQELATTQDQVASIIE [NUT2] | 2.77 ± 0.059 | 2.95 ± 0.043 | 3.23 ± 0.053 | 2.98 ± 0.037 |
| LQQICRVRNKDIRKFLD [RPL9A] | 2.13 ± 0.074 | 2.2 ± 0.074 | 2.04 ± 0.1 | 2.31 ± 0.054 |
| LQQKQQQRFQALQQQQQ [SWI1] | 1.35 ± 0.057 | 1.53 ± 0.047 | 1.37 ± 0.083 | 1.56 ± 0.063 |
| LQVLKRERDGIKEDIEK [SMC1] | 3.06 ± 0.23 | 2.85 ± 0.12 | 3.15 ± 0.066 | 2.75 ± 0.23 |
| LQYIIHDTLNNEIANSI [BRR2] | 2.67 ± 0.057 | 2.69 ± 0.076 | 2.86 ± 0.077 | 2.76 ± 0.056 |
| LQYYILEYMNTARINNR [RRI2] | 2.12 ± 0.15 | 1.37 ± 0.097 | 1.96 ± 0.14 | 1.93 ± 0.12 |
| LRELDVELIESKINELS [SMC4] | 3.37 ± 0.096 | 3.47 ± 0.077 | 3.38 ± 0.073 | 3.35 ± 0.047 |
| LRGEYNDLQSETKTKKE [SMC4] | – | 3.4 ± 0.087 | 3.24 ± 0.072 | 2.82 ± 0.066 |
| LRGSLLSRKPSDNKKRS [RPC82] | 2.96 ± 0.13 | 3.6 ± 0.14 | 3.27 ± 0.1 | 3.01 ± 0.13 |
| LRIVKPTVSLTINLDRF [RPC82] | 2.29 ± 0.068 | 2.29 ± 0.054 | 2.46 ± 0.063 | 2.43 ± 0.11 |
| LRKIQALRDVKNNNNAN [GAL11] | 3.05 ± 0.077 | 2.87 ± 0.097 | 3.15 ± 0.1 | 3.11 ± 0.071 |
| LRLLLLLIEFPYLPKHY [YJR042W/NUP85] | 1.81 ± 0.052 | 1.72 ± 0.054 | 1.55 ± 0.062 | 1.76 ± 0.047 |
| LRLSNFFTIDHFIQKLH [SIR2] | 2.32 ± 0.085 | 2.2 ± 0.07 | 2.23 ± 0.074 | 2.05 ± 0.068 |
| LRNKLIESNKLAGVLYE [RRP6] | 2.72 ± 0.16 | 3.04 ± 0.21 | 2.79 ± 0.28 | 2.73 ± 0.18 |
| LRNVFLGKCSRITDASL [GRR1] | 2.94 ± 0.066 | 2.81 ± 0.097 | 2.68 ± 0.07 | 2.82 ± 0.05 |
| LRPLFTRYELYIKNILE [YLR335W/NUP2] | 1.6 ± 0.053 | 1.88 ± 0.044 | 1.8 ± 0.081 | 1.93 ± 0.033 |
| LRRASATVPSAPYRKQI [YAR002W/NUP60] | 2.72 ± 0.095 | 2.93 ± 0.11 | 2.07 ± 0.13 | 2.64 ± 0.068 |
| LRRVEERFTKSKTLSLI [FAS1] | 2.31 ± 0.076 | 2.09 ± 0.059 | 2.17 ± 0.087 | 1.79 ± 0.037 |
